From publication PMC9366794 (ACS Omega, 2022)
Ends that are not written are not given here.

Key:
[1] = test system: MC4R KO mice; conditions: MC4R KO mice (intact MC3R); cited from earlier work
[2] = target: mouse melanocortin-1 receptor (mouse) (UniProt Q01727)
[3] = target: mouse melanocortin-5 receptor (mouse) (UniProt P41149)
[4] = test system: male mice; conditions: icv, 5 μg, at 4, 6, and 24 h; cited from earlier work
[5] = test system: wildtype, MC4R KO, and MC3R KO mice; conditions: significant out to at least 7 days post-administration; cited from earlier work
[6] = target: mouse melanocortin-3 receptor (mouse) (UniProt P33033)
[7] = target: mouse melanocortin-4 receptor (mouse) (UniProt P56450)
Chain of UniProt P56450 (P56450 whole entry): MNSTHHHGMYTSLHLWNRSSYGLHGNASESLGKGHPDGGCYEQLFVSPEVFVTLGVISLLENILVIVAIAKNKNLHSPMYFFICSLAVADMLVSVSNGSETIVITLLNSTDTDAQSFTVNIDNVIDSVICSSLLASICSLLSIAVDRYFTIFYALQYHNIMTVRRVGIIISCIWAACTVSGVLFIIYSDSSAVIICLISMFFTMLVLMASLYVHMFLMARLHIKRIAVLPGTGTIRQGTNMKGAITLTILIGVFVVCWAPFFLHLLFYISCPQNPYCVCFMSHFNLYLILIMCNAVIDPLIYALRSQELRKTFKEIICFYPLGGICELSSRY

Chain of UniProt P41149 (P41149 whole entry): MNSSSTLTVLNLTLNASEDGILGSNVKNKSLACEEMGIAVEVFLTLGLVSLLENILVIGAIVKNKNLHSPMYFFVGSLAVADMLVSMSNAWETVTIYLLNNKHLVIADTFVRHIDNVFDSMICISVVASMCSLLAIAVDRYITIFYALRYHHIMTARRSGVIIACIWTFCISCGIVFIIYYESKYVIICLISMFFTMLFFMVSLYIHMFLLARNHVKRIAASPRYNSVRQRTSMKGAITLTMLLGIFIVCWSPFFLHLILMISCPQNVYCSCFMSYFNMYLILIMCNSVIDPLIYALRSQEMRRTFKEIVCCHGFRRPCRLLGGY
Chain of UniProt Q01727 (Q01727 whole entry): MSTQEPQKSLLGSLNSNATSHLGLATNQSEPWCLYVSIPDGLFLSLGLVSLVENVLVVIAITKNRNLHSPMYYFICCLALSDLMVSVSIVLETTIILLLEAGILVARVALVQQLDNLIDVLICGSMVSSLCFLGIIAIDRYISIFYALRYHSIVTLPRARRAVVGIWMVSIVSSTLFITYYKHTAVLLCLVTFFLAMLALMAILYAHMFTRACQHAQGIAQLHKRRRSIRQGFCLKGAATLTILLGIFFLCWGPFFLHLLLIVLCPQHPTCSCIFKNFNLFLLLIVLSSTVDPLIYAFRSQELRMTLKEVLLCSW
Chain of UniProt P33033 (P33033 whole entry): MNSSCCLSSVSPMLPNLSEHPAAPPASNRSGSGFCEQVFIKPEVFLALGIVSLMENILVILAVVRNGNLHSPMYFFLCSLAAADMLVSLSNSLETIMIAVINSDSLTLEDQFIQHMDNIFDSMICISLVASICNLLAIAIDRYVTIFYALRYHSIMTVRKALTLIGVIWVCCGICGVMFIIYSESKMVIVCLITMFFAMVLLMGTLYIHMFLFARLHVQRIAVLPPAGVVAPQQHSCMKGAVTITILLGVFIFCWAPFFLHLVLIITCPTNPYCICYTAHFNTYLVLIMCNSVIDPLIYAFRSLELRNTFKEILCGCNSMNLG

agonist EC50, cAMP AlphaScreen, HEK293 cells stably expressing mMC1R [2] [nM] | agonist EC50, cAMP AlphaScreen, HEK293 cells stably expressing mMC5R [3] [nM] | agonist EC50, cAMP AlphaScreen, HEK293 cells stably expressing mMC3R [6] [nM] | Compound | further results
 |  |  | MTII | food intake in MC4R KO mice [1]: decrease in food intake
210 | 650 |  | Ac-Arg-Arg-(pI)DPhe-wsf-NH2 (peptide) | 
 |  |  | CC(=O)N[C@@H](CCCNC(=N)N)C(=O)N[C@@H](CCCNC(=N)N)C(=O)N[C@H](Cc1ccc(I)cc1)C(=O)N1Cc2ccccc2C[C@H]1C(N)=O [compound 1, Ac-Arg-Arg-(pI)DPhe-Tic-NH2] | food intake versus artificial cerebrospinal fluid vehicle [4]: statistically significant increase in food intake
 | 350 |  | Ac-Arg-Arg-wsf-Tic-NH2 (peptide) | 
 |  |  | AGRP: naturally occurring MC3R/MC4R antagonist agouti-related protein (SSRRCVRLHESCLGQQVPCCDPCATCYCRFFNAFCYCRKLGTAMNPCSRT; ends and bridges not checked; cysteine pairing not given here; UniProt O00253 83-132, looked up) | food intake compared to saline injection [5]: dose-dependent increase in food intake
0.18 | 7 | 10 | Ac-Arg-Arg-(pI)DPhe-Tic-NH2 (peptide) | 
380 | 240 | 570 | Ac-Arg-Arg-(pI)DPhe-Wrf-NH2 (peptide) | 
0.013 | 0.26 | 0.16 | NDP-MSH (peptide) | agonist EC50, cAMP AlphaScreen, HEK293 cells stably expressing mMC4R [7]: 0.68 nM
 |  |  | Ac-His-DPhe-Arg-Trp-NH2 | food intake in MC4R KO mice [1]: decrease in food intake
